The source of these data is PMC10923064.

The target of data set [1] is T1, human RPA (RPA70/RPA32/RPA14) (human, UniProt P27694;P15927;P35244 1-616;1-270;1-121). Briefly: fluorescence anisotropy. A general note: Fluorescence polarisation rises when a labelled molecule tumbles more slowly, as on binding a larger partner.
Data set [2] has as its target T1, human RPA (RPA70/RPA32/RPA14). Nature of the data set: stopped-flow Trp fluorescence.

T1 sequence (P27694 whole entry, chain 1 of 3): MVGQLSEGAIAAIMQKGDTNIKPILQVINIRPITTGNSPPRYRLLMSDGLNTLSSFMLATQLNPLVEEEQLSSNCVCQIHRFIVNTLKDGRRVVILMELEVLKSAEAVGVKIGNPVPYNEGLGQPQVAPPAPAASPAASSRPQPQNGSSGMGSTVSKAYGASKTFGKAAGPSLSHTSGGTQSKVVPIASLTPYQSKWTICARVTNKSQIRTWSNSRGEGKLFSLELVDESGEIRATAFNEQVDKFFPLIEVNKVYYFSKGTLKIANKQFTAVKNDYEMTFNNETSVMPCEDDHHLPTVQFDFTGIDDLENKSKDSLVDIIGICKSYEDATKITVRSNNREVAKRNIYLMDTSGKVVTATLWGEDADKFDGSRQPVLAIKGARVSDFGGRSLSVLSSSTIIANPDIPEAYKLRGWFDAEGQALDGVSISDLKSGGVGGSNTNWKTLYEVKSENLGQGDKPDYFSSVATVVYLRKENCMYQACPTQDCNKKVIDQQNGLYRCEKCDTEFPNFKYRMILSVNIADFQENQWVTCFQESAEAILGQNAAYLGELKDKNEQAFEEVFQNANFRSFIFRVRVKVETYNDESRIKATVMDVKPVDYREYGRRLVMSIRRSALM
T1 sequence (P15927 whole entry, chain 2 of 3): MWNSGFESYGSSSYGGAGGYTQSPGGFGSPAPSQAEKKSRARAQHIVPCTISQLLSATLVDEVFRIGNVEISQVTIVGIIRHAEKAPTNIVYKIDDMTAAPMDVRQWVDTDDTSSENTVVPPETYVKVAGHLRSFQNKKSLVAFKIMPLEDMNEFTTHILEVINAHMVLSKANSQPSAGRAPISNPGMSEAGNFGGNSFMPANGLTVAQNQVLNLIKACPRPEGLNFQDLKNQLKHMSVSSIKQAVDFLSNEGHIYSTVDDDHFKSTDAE
T1 sequence (P35244 whole entry, chain 3 of 3): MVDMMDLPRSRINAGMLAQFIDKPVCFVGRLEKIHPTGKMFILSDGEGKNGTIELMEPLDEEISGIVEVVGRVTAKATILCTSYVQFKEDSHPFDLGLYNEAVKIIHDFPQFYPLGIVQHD

B1: 5'-FAM-(dT)35 (ssDNA)
DNA: TTTTTTTTTTTTTTTTTTTTTTTTTTTTTTTTTTT
On to B1, for which, in data set [1], the binding result is recorded as “binds”.

B2: (dT)35 (ssDNA)
DNA: TTTTTTTTTTTTTTTTTTTTTTTTTTTTTTTTTTT
As for B2, the binding result in data set [2] was “binds”.
